In patent US20170137818, “APTAMER INHIBITING BIOLOGICAL ACTIVITY OF AUTOTAXIN BY BINDING WITH AUTOTAXIN, AND USE THEREOF” (RIBOMIC INC., published 2017):

B1: 12(2) (ssDNA)
DNA: CCTGGACGGAACCAGAATACTTTTGGTCTCCAGG
modifications: 2'-OMe C30,C31
B2: 12(73) (ssDNA)
DNA: B1 DNA
modifications: 2'-OMe C7,G9,A14,G15,A19,C20,U22,A32,G33,G34; idT 5' and 3'
B3: 12(120) (ssDNA)
DNA: B1 DNA
modifications: 2'-OMe C7,G9,A14,G15,A19,C20,A32,G33,G34; P-methyl T24; idT 5' and 3'
B4: 12(129) (ssDNA)
DNA: B1 DNA
modifications: 2'-OMe C7,G9,A14,G15,A19,C20,A32,G33,G34; P-methyl T3; idT 5' and 3'
B5: 12(70) (ssDNA)
DNA: B1 DNA
modifications: 2'-OMe C7,G9,A14,G15,A19,C20,U23,A32,G33,G34; idT 5' and 3'
B6: 12(122) (ssDNA)
DNA: B1 DNA
modifications: 2'-OMe C7,G9,A14,G15,A19,C20,A32,G33,G34; P-methyl T22; idT 5' and 3'
B7: 12(104) (ssDNA)
DNA: B1 DNA
modifications: 2'-OMe C7,G9,A14,G15,A19,C20,A32,G33,G34; PS after T22; idT 5' and 3'
B8: 12(110) (ssDNA)
DNA: B1 DNA
modifications: 2'-OMe C7,G9,A14,G15,A19,C20,A32,G33,G34; PS after G4; idT 5' and 3'
B9: 12(127) (ssDNA)
DNA: B1 DNA
modifications: 2'-OMe C7,G9,A14,G15,A19,C20,A32,G33,G34; P-methyl C30; idT 5' and 3'
B10: 12(58) (ssDNA)
DNA: B1 DNA
modifications: 2'-OMe C7,G9,A14,G15,A19,C20,A32,G33,G34; P-methyl C2; idT 5' and 3'
B11: 12(109) (ssDNA)
DNA: B1 DNA
modifications: 2'-OMe C7,G9,A14,G15,A19,C20,A32,G33,G34; PS after T3; idT 5' and 3'
B12: 12(85) (ssDNA)
DNA: B1 DNA
modifications: 2'-OMe C7,G9,A14,G15,A19,C20,A32,G33,G34; PS after T27; idT 5' and 3'
B13: 12(90) (ssDNA)
DNA: B1 DNA
modifications: 2'-OMe C7,G9,A14,G15,A19,C20,A32,G33,G34; P-methyl G25; idT 5' and 3'
B14: 12(128) (ssDNA)
DNA: B1 DNA
modifications: 2'-OMe C7,G9,A14,G15,A19,C20,A32,G33,G34; P-methyl G5; idT 5' and 3'
B15: 12(114) (ssDNA)
DNA: B1 DNA
modifications: 2'-OMe C7,G9,A14,G15,A19,C20,A32,G33,G34; PS after C31; idT 5' and 3'
B16: 12(101) (ssDNA)
DNA: B1 DNA
modifications: 2'-OMe C7,G9,A14,G15,A19,C20,A32,G33,G34; PS after T18; idT 5' and 3'
B17: 12(117) (ssDNA)
DNA: B1 DNA
modifications: 2'-OMe C7,G9,A14,G15,A19,C20,A32,G33,G34; PS after G8; 5' 40 kDa PEG (GL2-400GS2) via ssH linker; 3' idT
B18: 12(59) (ssDNA)
DNA: B1 DNA
modifications: 2'-OMe C7,G9,A14,G15,A19,C20,A32,G33,G34; P-methyl G4; idT 5' and 3'
B19: 12(112) (ssDNA)
DNA: B1 DNA
modifications: 2'-OMe C7,G9,A14,G15,A19,C20,A32,G33,G34; PS after T29; idT 5' and 3'
B20: 12(123) (ssDNA)
DNA: B1 DNA
modifications: 2'-OMe C7,G9,A14,G15,A19,C20,A32,G33,G34; P-methyl T21; idT 5' and 3'
B21: 12(74) (ssDNA)
DNA: B1 DNA
modifications: 2'-OMe C7,G9,A14,G15,A19,C20,U21,A32,G33,G34; idT 5' and 3'
B22: 12(107) (ssDNA)
DNA: B1 DNA
modifications: 2'-OMe C7,G9,A14,G15,A19,C20,A32,G33,G34; PS after C1; idT 5' and 3'
B23: 12(125) (ssDNA)
DNA: B1 DNA
modifications: 2'-OMe C7,G9,A14,G15,A19,C20,A32,G33,G34; P-methyl A17; idT 5' and 3'
B24: 12(86) (ssDNA)
DNA: B1 DNA
modifications: 2'-OMe C7,G9,A14,G15,A19,C20,A32,G33,G34; PS after C28; idT 5' and 3'
B25: 12(108) (ssDNA)
DNA: B1 DNA
modifications: 2'-OMe C7,G9,A14,G15,A19,C20,A32,G33,G34; PS after C2; idT 5' and 3'
B26: 12(63) (ssDNA)
DNA: B1 DNA
modifications: 2'-OMe C7,G9,A14,G15,A19,C20,G33,G34; P-methyl A32; idT 5' and 3'
B27: 12(91) (ssDNA)
DNA: B1 DNA
modifications: 2'-OMe C7,G9,A14,G15,A19,C20,A32,G33,G34; P-methyl C13; idT 5' and 3'
B28: 12(87) (ssDNA)
DNA: B1 DNA
modifications: 2'-OMe C7,G9,A14,G15,A19,C20,A32,G33,G34; PS after T23; idT 5' and 3'
B29: 12(121) (ssDNA)
DNA: B1 DNA
modifications: 2'-OMe C7,G9,A14,G15,A19,C20,A32,G33,G34; P-methyl T23; idT 5' and 3'
B30: 12(71) (ssDNA)
DNA: B1 DNA
modifications: 2'-OMe C7,G9,A14,G15,A19,C20,U29,A32,G33,G34; idT 5' and 3'
B31: 12(103) (ssDNA)
DNA: B1 DNA
modifications: 2'-OMe C7,G9,A14,G15,A19,C20,A32,G33,G34; PS after T21; idT 5' and 3'

Legend:
[1] = target: autotaxin (endogenous, human pooled serum) (Homo sapiens, UniProt Q13822 Q13822:36-863); assay: inhibition; LPA production in serum, 5.0 uM
autotaxin (ENPP2/NPP2) = autotaxin (ENPP2/NPP2) (Homo sapiens, UniProt Q13822 Q13822:36-863); assay: inhibition; LPA production, 0.10 uM aptamer, ~92% serum, 37C 3 h

| Binder | activity [1] [% inhibition] | activity (autotaxin (ENPP2/NPP2)) [% inhibition] |
| --- | --- | --- |
| B1 | 80 | – |
| B2 | – | 11 |
| B3 | – | 67 |
| B4 | – | 73 |
| B5 | – | 9 |
| B6 | – | 65 |
| B7 | – | 74 |
| B8 | – | 63 |
| B9 | – | 79 |
| B10 | – | 69 |
| B11 | – | 68 |
| B12 | – | 68 |
| B13 | – | 63 |
| B14 | – | 78 |
| B15 | – | 75 |
| B16 | – | 81 |

| Binder | activity [1] [% inhibition] | activity (autotaxin (ENPP2/NPP2)) [% inhibition] |
| --- | --- | --- |
| B17 | – | 90 |
| B18 | – | 71 |
| B19 | – | 69 |
| B20 | – | 74 |
| B21 | – | 31 |
| B22 | – | 75 |
| B23 | – | 78 |
| B24 | – | 57 |
| B25 | – | 68 |
| B26 | – | 59 |
| B27 | – | 58 |
| B28 | – | 70 |
| B29 | – | 80 |
| B30 | – | 31 |
| B31 | – | 88 |
